Results: paper PMC4196864

Target: paclitaxel-stabilized microtubules assembled from purified porcine brain tubulin (porcine) (UniProt P02550)
Assay: co-sedimentation

With “6xHis/mCherry-tagged XMAP4 phosphomimetic mutant (T758E/T762E) (natural protein)” the fold lower band intensity in MT pellets than the T758A/T762A mutant was 1.4 fold.
